Among the data in article PMC6597238, “The GluTR-binding protein is the heme-binding factor for feedback control of glutamyl-tRNA reductase” (eLife, 2019) are Kd values, retold here.

Conditions in all cases: both partners purified
Test [1] deals with T1, 6xHIS-GluTR1 (glutamyl-tRNA reductase 1) (Arabidopsis, UniProt P42804 62-543).
T1 construct: glutamyl-tRNA reductase 1 (GluTR1), Arabidopsis, encoded by HEMA1; Czarnecki et al., 2011; Wang et al., 2018; source: E. coli BL21, purified (Ni-NTA)
T1 sequence (looked up): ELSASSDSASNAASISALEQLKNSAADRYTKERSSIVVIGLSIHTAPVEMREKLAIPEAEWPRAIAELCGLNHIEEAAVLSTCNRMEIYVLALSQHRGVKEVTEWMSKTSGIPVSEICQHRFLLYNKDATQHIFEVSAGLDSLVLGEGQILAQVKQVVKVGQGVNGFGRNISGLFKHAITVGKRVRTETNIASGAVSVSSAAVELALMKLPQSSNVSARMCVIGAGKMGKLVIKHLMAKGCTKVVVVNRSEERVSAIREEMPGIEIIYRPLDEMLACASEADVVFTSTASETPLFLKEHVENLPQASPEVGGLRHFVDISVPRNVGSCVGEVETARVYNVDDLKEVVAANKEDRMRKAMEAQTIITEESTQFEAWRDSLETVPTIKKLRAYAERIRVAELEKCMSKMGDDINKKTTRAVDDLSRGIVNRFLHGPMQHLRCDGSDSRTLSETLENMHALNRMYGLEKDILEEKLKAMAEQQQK
Description: MST; as a3 with addition of 1 µM hemin.

Test [2] has as its target T1, 6xHIS-GluTR1 (glutamyl-tRNA reductase 1). Description: MST; 200 nM labeled 6xHIS-GBP-FLUO constant, 6xHIS-GluTR1 titrated from 7.5 µM, PBS, Monolith NT.115; Kd from initial fluorescence quenching; no hemin; n = 2.
Test [3] concerns the target T2, 6xHIS-GluTR1-FLUO (fluorophore-labeled 6xHIS-GluTR1) (Arabidopsis, UniProt P42804 62-543, fluorophore from the RED-NHS (Amine Reactive) protein labeling kit (second generation)).
T2 construct: glutamyl-tRNA reductase 1 (GluTR1), Arabidopsis, encoded by HEMA1; same construct as m1, labeled; m1 after amine-reactive labelling; also called labeled HIS-GluTR; source: E. coli BL21, purified (Ni-NTA), labeled with the RED-NHS protein labeling kit
T2 sequence (looked up): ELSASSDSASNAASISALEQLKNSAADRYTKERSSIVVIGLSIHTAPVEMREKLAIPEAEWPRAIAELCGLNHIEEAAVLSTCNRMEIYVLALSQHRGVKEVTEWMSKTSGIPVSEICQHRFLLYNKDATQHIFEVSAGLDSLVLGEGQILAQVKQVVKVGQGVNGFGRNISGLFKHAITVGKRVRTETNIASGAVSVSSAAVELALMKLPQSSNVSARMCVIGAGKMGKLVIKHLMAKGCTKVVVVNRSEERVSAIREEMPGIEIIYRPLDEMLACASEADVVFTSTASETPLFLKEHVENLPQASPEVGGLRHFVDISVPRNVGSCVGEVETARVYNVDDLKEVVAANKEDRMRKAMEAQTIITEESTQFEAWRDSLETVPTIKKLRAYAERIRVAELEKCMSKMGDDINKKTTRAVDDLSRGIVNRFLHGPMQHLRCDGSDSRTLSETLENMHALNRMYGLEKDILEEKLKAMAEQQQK
Description: MST; as a5 with addition of 1 µM hemin.

For test [4], the target named is T2, 6xHIS-GluTR1-FLUO (fluorophore-labeled …). Kind of test: MST; 200 nM labeled 6xHIS-GluTR1-FLUO constant, 6xHIS-GBP titrated from 7.5 µM, PBS, Monolith NT.115; MST signal 1.5 s after turning on the laser; no hemin; n = 2.

B1: 6xHIS-GBP-FLUO (fluorophore-labeled 6xHIS-GBP) (natural protein, Arabidopsis, UniProt Q9LU39 43-317, looked up)
chain: SVSTTLDTPATASTHKPFPAEVSRSIMELSSVGTLSTLTHDGWPLGVGVRFAVDKDGTPVLCLNRSVSPDKRSALHVQLEQCGLRTPQCTIQGSIGRPGDDTVLKRLSATWREKFGEEVKEDSLYVVAVDRVLQMEDFMEDGIWVASSDYKNASPDPLRDIAEDIVNQINANNMEDIFRFCNVYVDLDFVVSETKMIWMDRLGFDLRVWSPRGVYDVRIPFPMEVTDEKGAKSSFNGMSQLAWEVEKSYCPADFNKVKLLKQVVGSSHSHKGGGQ
modifications: fluorophore from the RED-NHS (Amine Reactive) protein labeling kit (second generation)
notes: same construct as m3, labeled; m3 after amine-reactive labelling; also called labeled HIS-GBP; labeled GBP; source: E. coli BL21, purified (Ni-NTA), labeled with the RED-NHS protein labeling kit
In the case of B1, the Kd (as a rule, a measure of binding affinity in units of concentration) in test [1] was found to be 931 nM; in test [2] it was 65 nM.

B2: 6xHIS-GBP (GluTR-binding protein) (natural protein, Arabidopsis, UniProt Q9LU39 43-317, looked up)
chain: SVSTTLDTPATASTHKPFPAEVSRSIMELSSVGTLSTLTHDGWPLGVGVRFAVDKDGTPVLCLNRSVSPDKRSALHVQLEQCGLRTPQCTIQGSIGRPGDDTVLKRLSATWREKFGEEVKEDSLYVVAVDRVLQMEDFMEDGIWVASSDYKNASPDPLRDIAEDIVNQINANNMEDIFRFCNVYVDLDFVVSETKMIWMDRLGFDLRVWSPRGVYDVRIPFPMEVTDEKGAKSSFNGMSQLAWEVEKSYCPADFNKVKLLKQVVGSSHSHKGGGQ
notes: Czarnecki et al., 2011; Wang et al., 2018; probably without the transit peptide; source: E. coli BL21, purified (Ni-NTA)
Consider B2, for which the values for the Kd in test [3] and in test [4] were 806 nM and 113 nM, respectively.
